Here are results for 2 molecules from patent US20140356358A1 (Amgen, published 2014).

For experiment [1], the target named is T1, human neonatal Fc receptor (hFcRn) (human, UniProt P55899 24-290; P61769 21-119).
T1 construct: Biotinylated in the ELISA, Octet and yeast assays; also called human FcRn; huFcRn
As to the kind of experiment: SPR competition pH 7.4. The method, then: (§1) Binding of variant Fc-fragments to human and cynomolgus monkey FcRn was tested using a BIAcore® T100 analysis system (GE Healthcare Bio-Sciences AB Private Limited Liability Company, Uppsala, Sweden) at both pH 5.5 and pH 7.4. The test consisted of incubating various concentrations of the variant Fc-fragments or control Fc-fragments with a fixed amount of human or cynomolgus monkey FcRn under binding conditions and subsequently measuring the amount of free, unbound FcRn in these mixtures by binding to a surface (in a flow cell of a CM5 (Biacore) chip) on which an Fc-fragment was immobilized. […] Thus, the amount of unbound FcRn in the mixture was quantitatively ascertained by surface plasmon resonance through use of the BIAcore® T100 analysis system. […] Initially, a group of 23 variant-Fc-fragments (Fc-5-1 being considered a control) identified in the experiments described above were tested for binding to human FcRn.
(§2) As positive controls, 10 mM human and cynomolgus monkey FcRn were each incubated in the same solution, for the same time, and at the same temperature described immediately above, but without an added Fc-fragment.

For experiment [2], the target named is T2, cynomolgus monkey FcRn (cynomolgus monkey, UniProt Q8SPV9 24-297; Q8SPW0 21-119, limits assumed).
T2 construct: also called Cynomolgus FcRn
Kind of experiment: SPR competition pH 7.4. As to the method:
as §1, §2

Experiment [3] addresses T1, human neonatal Fc receptor (hFcRn). Kind of experiment: SPR competition pH 5.5.
In experiment [4] the target is T2, cynomolgus monkey FcRn. As to the kind of experiment: SPR competition pH 5.5.
In experiment [5] the target is T1, human neonatal Fc receptor (hFcRn). As to the kind of experiment: SPR competition pH 5.5. The source holds these as a separate data set.
For experiment [6], the target named is T2, cynomolgus monkey FcRn. Kind of experiment: SPR competition pH 5.5. This is another data set of the same source.
In experiment [7] the target is T1, human neonatal Fc receptor (hFcRn). Kind of experiment: SPR competition pH 7.4. The source holds these as a separate data set.
Experiment [8] has as its target T2, cynomolgus monkey FcRn. Kind of experiment: SPR competition pH 7.4. The source holds these as a separate data set.

Changes are numbered by the printed parent chain. Names and notes keep the numbering of the source.

T2 sequence (Q8SPV9 24-297 limits assumed, chain 1 of 2): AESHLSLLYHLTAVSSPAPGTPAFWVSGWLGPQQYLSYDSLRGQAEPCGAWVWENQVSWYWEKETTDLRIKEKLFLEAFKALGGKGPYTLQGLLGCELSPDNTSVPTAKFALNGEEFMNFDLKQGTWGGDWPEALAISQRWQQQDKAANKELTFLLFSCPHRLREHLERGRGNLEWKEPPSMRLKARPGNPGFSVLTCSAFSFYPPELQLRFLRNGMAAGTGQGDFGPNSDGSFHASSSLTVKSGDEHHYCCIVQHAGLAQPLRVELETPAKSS
T2 sequence (Q8SPW0 21-119 limits assumed, chain 2 of 2): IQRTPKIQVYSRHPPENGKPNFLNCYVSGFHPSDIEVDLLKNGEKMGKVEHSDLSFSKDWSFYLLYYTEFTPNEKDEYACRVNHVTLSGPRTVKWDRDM
T1 sequence (P55899 24-290 limits assumed, chain 1 of 2): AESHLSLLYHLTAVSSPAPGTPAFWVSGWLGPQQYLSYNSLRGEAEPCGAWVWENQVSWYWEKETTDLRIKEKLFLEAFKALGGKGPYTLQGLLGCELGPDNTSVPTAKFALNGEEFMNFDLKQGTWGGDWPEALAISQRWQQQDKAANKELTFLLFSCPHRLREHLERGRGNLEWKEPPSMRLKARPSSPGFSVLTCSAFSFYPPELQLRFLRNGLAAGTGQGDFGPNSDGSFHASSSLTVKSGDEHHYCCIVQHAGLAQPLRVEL
T1 sequence (P61769 21-119 limits assumed, chain 2 of 2): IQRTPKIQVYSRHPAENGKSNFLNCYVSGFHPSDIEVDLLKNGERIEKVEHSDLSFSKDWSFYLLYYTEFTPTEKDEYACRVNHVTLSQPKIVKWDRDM

B1: variant Fc-fragment Fc-5-1 (other)
chain: EPKSCDKTHTCPPCPAPELLGGPSVFLFPPKPKDTLMISRTPEVTCVVVDVSHEDPEVKFNWYVDGVEVHNAKTKPREEQYNSTYRVVSVLTVLHQDWLNGKEYKCKVSNKALPAPIEKTISKAKGQPREPQVYTLPPSRDELTKNQVSLTCLVKGFYPSDIAVEWESNGGCGMPIEFCGGGQPENNYKTTPPVLDSDGSFFLYSKLTVDKSRWQQGNVFSCSVMHEALHNHYTQKSLSLSPGK
notes: library L5 isolate; also called variant 5-1
Take B1: the half-maximal effective concentration (EC50) in experiment [1] is 45 nM; with cynomolgus monkey FcRn [2], 42 nM; in experiment [3], 2.6 nM; with cynomolgus monkey FcRn [4], 2.3 nM.

B2: variant Fc-fragment Fc-5-106-M4L (other)
chain: B1 chain with G173V, M174F, P175N, I176L, E177F, F178N
For the molecule B2, the EC50 amounted to 2.3 nM in experiment [5], 2.8 nM in the experiment with cynomolgus monkey FcRn [6], 650 nM in experiment [7] and 710 nM in the experiment with cynomolgus monkey FcRn [8].
